For 28 molecules, binding signal results are on record in paper PMC6555819, “Comprehensive study of nuclear receptor DNA binding provides a revised framework for understanding receptor specificity”.

To fix the notation:
B1: NRC3_random_hg19_171_o1 (dsDNA)
DNA 1: GCGGGCTACTGCCTAGGGTGCCTTGGCACAGCCAGCGCGATTGACAGCGTAGAATGAAGG
DNA 2: CCTTCATTCTACGCTGTCAATCGCGCTGGCTGTGCCAAGGCACCCTAGGCAGTAGCCCGC
B2: NRC3_wobSeed18_DR0_o1 (dsDNA)
DNA 1: GCGATACAGGGTCAAGGCCAGAGTACGCGTATTGATGCGATTGACAGCGTAGAATGAAGG
DNA 2: CCTTCATTCTACGCTGTCAATCGCATCAATACGCGTACTCTGGCCTTGACCCTGTATCGC
B3: NRC3_wobSeed17_DR0_A14G_o1 (dsDNA)
DNA 1: GCATATGTAGGTTGGGGTCATTCAGAAAGTAGGGAAGCGATTGACAGCGTAGAATGAAGG
DNA 2: CCTTCATTCTACGCTGTCAATCGCTTCCCTACTTTCTGAATGACCCCAACCTACATATGC
B4: NRC3_wobSeed98_DR4_C29A_o1 (dsDNA)
DNA 1: GCACTAGTTGGTCAGCTGAGGTCACACAAAATTCGGGCGATTGACAGCGTAGAATGAAGG
DNA 2: CCTTCATTCTACGCTGTCAATCGCCCGAATTTTGTGTGACCTCAGCTGACCAACTAGTGC
B5: NRC3_wobSeed89_DR3_A15G_o1 (dsDNA)
DNA 1: GCCTATGTAGGTTAGGGGGGTCATTCAGTTTGAAAGGCGATTGACAGCGTAGAATGAAGG
DNA 2: CCTTCATTCTACGCTGTCAATCGCCTTTCAAACTGAATGACCCCCCTAACCTACATAGGC
B6: NRC3_wobSeed89_DR3_A9G_o1 (dsDNA)
DNA 1: GCCTATGTGGGTTAAGGGGGTCATTCAGTTTGAAAGGCGATTGACAGCGTAGAATGAAGG
DNA 2: CCTTCATTCTACGCTGTCAATCGCCTTTCAAACTGAATGACCCCCTTAACCCACATAGGC
B7: NRC3_wobSeed89_DR3_A15C_o1 (dsDNA)
DNA 1: GCCTATGTAGGTTACGGGGGTCATTCAGTTTGAAAGGCGATTGACAGCGTAGAATGAAGG
DNA 2: CCTTCATTCTACGCTGTCAATCGCCTTTCAAACTGAATGACCCCCGTAACCTACATAGGC
B8: NRC3_wobSeed74_DR3_A18G_o1 (dsDNA)
DNA 1: GCTCTAGTTGGTCACGGGGGTCACACACGACGGGTAGCGATTGACAGCGTAGAATGAAGG
DNA 2: CCTTCATTCTACGCTGTCAATCGCTACCCGTCGTGTGTGACCCCCGTGACCAACTAGAGC
B9: NRC3_wobSeed74_DR3_G7C_o1 (dsDNA)
DNA 1: GCTCTACTTGGTCACGGAGGTCACACACGACGGGTAGCGATTGACAGCGTAGAATGAAGG
DNA 2: CCTTCATTCTACGCTGTCAATCGCTACCCGTCGTGTGTGACCTCCGTGACCAAGTAGAGC
B10: NRC3_wobSeed113_DR4_T17G_o1 (dsDNA)
DNA 1: GCATATGTAGGTTAGCGGGGGTCATTCAGACTAGGCGCGATTGACAGCGTAGAATGAAGG
DNA 2: CCTTCATTCTACGCTGTCAATCGCGCCTAGTCTGAATGACCCCCGCTAACCTACATATGC
B11: NRC3_wobSeed27_DR1_A9G_o1 (dsDNA)
DNA 1: GCACTCGGGGGACAAAGGTCAGAGCTACGCCAGTGAGCGATTGACAGCGTAGAATGAAGG
DNA 2: CCTTCATTCTACGCTGTCAATCGCTCACTGGCGTAGCTCTGACCTTTGTCCCCCGAGTGC
B12: NRC3_wobSeed76_DR3_C13A_o1 (dsDNA)
DNA 1: GCCCTACTGGGCAAAAAAGGTCATTGATGCCGATAAGCGATTGACAGCGTAGAATGAAGG
DNA 2: CCTTCATTCTACGCTGTCAATCGCTTATCGGCATCAATGACCTTTTTTGCCCAGTAGGGC
B13: NRC3_wobSeed50_DR2_A17G_o1 (dsDNA)
DNA 1: GCCCTAGTTGGTCAGGGGGTCACACACCGGATATGAGCGATTGACAGCGTAGAATGAAGG
DNA 2: CCTTCATTCTACGCTGTCAATCGCTCATATCCGGTGTGTGACCCCCTGACCAACTAGGGC
B14: NRC3_wobSeed50_DR2_T9G_o1 (dsDNA)
DNA 1: GCCCTAGTGGGTCAGGAGGTCACACACCGGATATGAGCGATTGACAGCGTAGAATGAAGG
DNA 2: CCTTCATTCTACGCTGTCAATCGCTCATATCCGGTGTGTGACCTCCTGACCCACTAGGGC
B15: NRC3_wobSeed72_DR2_T13C_o1 (dsDNA)
DNA 1: GCTCGAGTAGGTCACGGGGGCATTCAGGGATGAAGAGCGATTGACAGCGTAGAATGAAGG
DNA 2: CCTTCATTCTACGCTGTCAATCGCTCTTCATCCCTGAATGCCCCCGTGACCTACTCGAGC
B16: NRC3_wobSeed72_DR2_A6T_o1 (dsDNA)
DNA 1: GCTCGTGTAGGTTACGGGGGCATTCAGGGATGAAGAGCGATTGACAGCGTAGAATGAAGG
DNA 2: CCTTCATTCTACGCTGTCAATCGCTCTTCATCCCTGAATGCCCCCGTAACCTACACGAGC
B17: NRC3_wobSeed2_DR0_C4A_o1 (dsDNA)
DNA 1: GCCATAGTTGGTCAAGGTCACACACGCTATAGGTACGCGATTGACAGCGTAGAATGAAGG
DNA 2: CCTTCATTCTACGCTGTCAATCGCGTACCTATAGCGTGTGTGACCTTGACCAACTATGGC
B18: NRC3_wobSeed2_DR0_A22G_o1 (dsDNA)
DNA 1: GCCCTAGTTGGTCAAGGTCACGCACGCTATAGGTACGCGATTGACAGCGTAGAATGAAGG
DNA 2: CCTTCATTCTACGCTGTCAATCGCGTACCTATAGCGTGCGTGACCTTGACCAACTAGGGC
B19: NRC3_wobSeed120_DR4_G7A_o1 (dsDNA)
DNA 1: GCCCGAATAGGTTACGAGGGGGCATTCAGTGCGAATGCGATTGACAGCGTAGAATGAAGG
DNA 2: CCTTCATTCTACGCTGTCAATCGCATTCGCACTGAATGCCCCCTCGTAACCTATTCGGGC
B20: NRC3_wobSeed49_DR2_C7A_o1 (dsDNA)
DNA 1: GCCAAAATAGGTCAAGAGGTCAAAGTCCGCTTCCCGGCGATTGACAGCGTAGAATGAAGG
DNA 2: CCTTCATTCTACGCTGTCAATCGCCGGGAAGCGGACTTTGACCTCTTGACCTATTTTGGC
B21: NRC3_wobSeed124_DR5_C17A_o1 (dsDNA)
DNA 1: GCCCTACTGGGCCATTAAGAGGTCATTGATCATATGGCGATTGACAGCGTAGAATGAAGG
DNA 2: CCTTCATTCTACGCTGTCAATCGCCATATGATCAATGACCTCTTAATGGCCCAGTAGGGC
B22: NRC3_wobSeed124_DR5_T27C_o1 (dsDNA)
DNA 1: GCCCTACTGGGCCATTCAGAGGTCATCGATCATATGGCGATTGACAGCGTAGAATGAAGG
DNA 2: CCTTCATTCTACGCTGTCAATCGCCATATGATCGATGACCTCTGAATGGCCCAGTAGGGC
B23: NRC3_wobSeed124_DR5_T15C_o1 (dsDNA)
DNA 1: GCCCTACTGGGCCACTCAGAGGTCATTGATCATATGGCGATTGACAGCGTAGAATGAAGG
DNA 2: CCTTCATTCTACGCTGTCAATCGCCATATGATCAATGACCTCTGAGTGGCCCAGTAGGGC
B24: NRC3_wobSeed26_DR1_C22A_o1 (dsDNA)
DNA 1: GCTCTAGTTGGTCAAAGGTCAAACACTCGAAATGCGGCGATTGACAGCGTAGAATGAAGG
DNA 2: CCTTCATTCTACGCTGTCAATCGCCGCATTTCGAGTGTTTGACCTTTGACCAACTAGAGC
B25: NRC3_wobSeed92_DR3_A9G_o1 (dsDNA)
DNA 1: GCAGAATGGGGTTATTAAGATCAGGGAATTGCGGTCGCGATTGACAGCGTAGAATGAAGG
DNA 2: CCTTCATTCTACGCTGTCAATCGCGACCGCAATTCCCTGATCTTAATAACCCCATTCTGC
B26: NRC3_wobSeed69_DR2_A21T_o1 (dsDNA)
DNA 1: GCAGTCAAAGTTCACTAGGTTACGTAAGATTCAGCTGCGATTGACAGCGTAGAATGAAGG
DNA 2: CCTTCATTCTACGCTGTCAATCGCAGCTGAATCTTACGTAACCTAGTGAACTTTGACTGC
B27: NRC3_wobSeed25_DR1_A5C_o1 (dsDNA)
DNA 1: GCCACACTAGGTCAAAGGTCAAAGTCGAGCCAACCAGCGATTGACAGCGTAGAATGAAGG
DNA 2: CCTTCATTCTACGCTGTCAATCGCTGGTTGGCTCGACTTTGACCTTTGACCTAGTGTGGC
B28: NRC3_wobSeed58_DR2_C5G_o1 (dsDNA)
DNA 1: GCATGGAAAGGTCGTGAGGTGAGTATACAGAAAGGCGCGATTGACAGCGTAGAATGAAGG
DNA 2: CCTTCATTCTACGCTGTCAATCGCGCCTTTCTGTATACTCACCTCACGACCTTTCCATGC

Chain of LXRb:RXRa (P55055 whole entry, chain 1 of 2): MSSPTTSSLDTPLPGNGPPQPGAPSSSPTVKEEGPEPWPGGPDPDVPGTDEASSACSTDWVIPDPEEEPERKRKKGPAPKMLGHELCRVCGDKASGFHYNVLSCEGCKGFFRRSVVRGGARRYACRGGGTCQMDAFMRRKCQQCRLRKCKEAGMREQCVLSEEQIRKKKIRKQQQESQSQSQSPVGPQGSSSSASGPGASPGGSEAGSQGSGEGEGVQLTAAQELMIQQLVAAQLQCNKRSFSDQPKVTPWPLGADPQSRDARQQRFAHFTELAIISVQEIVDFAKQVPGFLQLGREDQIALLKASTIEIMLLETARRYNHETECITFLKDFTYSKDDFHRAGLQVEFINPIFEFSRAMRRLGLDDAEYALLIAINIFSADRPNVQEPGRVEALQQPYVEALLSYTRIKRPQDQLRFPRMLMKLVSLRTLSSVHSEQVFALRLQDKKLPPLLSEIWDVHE
Chain of LXRb:RXRa (P19793 whole entry, chain 2 of 2): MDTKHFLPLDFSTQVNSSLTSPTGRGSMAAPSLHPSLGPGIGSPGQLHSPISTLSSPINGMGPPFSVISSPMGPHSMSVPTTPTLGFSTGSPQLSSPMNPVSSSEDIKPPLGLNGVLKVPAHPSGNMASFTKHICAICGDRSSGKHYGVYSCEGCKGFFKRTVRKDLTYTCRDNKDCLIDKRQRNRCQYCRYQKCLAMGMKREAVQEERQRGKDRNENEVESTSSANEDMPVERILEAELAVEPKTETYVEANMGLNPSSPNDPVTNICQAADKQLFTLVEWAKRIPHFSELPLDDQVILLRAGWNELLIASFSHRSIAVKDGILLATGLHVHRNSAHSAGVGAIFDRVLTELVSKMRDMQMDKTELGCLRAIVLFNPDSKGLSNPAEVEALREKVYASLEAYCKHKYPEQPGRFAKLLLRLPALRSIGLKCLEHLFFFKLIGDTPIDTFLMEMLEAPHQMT
Chain of FXR:RXRa (Q96RI1 whole entry, chain 1 of 2): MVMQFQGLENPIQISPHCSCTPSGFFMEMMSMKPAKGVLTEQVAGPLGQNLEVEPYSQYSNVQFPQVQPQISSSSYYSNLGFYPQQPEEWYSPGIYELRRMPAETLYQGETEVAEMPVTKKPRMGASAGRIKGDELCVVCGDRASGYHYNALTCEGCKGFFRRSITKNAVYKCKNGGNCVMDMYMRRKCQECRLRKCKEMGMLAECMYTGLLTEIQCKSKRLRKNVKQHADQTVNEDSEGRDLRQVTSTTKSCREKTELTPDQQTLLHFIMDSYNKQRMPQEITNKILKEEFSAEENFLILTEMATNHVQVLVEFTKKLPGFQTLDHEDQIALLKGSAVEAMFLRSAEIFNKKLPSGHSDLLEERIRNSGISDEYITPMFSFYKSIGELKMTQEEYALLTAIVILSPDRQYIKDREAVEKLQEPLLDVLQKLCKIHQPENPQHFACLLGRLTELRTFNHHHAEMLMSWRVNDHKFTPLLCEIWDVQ
Chain of FXR:RXRa (P19793 whole entry, chain 2 of 2): as the sequence (P19793 whole entry, chain 2 of 2) above
Chain of VDR:RXRa (P11473 whole entry, chain 1 of 2): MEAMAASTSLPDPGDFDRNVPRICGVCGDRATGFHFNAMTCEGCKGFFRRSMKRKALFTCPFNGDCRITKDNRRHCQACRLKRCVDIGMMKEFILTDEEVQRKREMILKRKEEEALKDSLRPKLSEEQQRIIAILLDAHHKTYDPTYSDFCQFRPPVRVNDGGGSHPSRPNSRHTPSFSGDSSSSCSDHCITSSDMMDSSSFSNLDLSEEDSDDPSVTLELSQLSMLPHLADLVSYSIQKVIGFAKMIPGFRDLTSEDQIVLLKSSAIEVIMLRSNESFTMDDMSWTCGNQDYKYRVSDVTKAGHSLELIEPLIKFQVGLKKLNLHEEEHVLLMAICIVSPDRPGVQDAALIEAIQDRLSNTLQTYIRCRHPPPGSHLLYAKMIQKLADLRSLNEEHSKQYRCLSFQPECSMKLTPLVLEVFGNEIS
Chain of VDR:RXRa (P19793 whole entry, chain 2 of 2): as the sequence (P19793 whole entry, chain 2 of 2) above
Chain of RARb:RXRa (P10826 whole entry, chain 1 of 2): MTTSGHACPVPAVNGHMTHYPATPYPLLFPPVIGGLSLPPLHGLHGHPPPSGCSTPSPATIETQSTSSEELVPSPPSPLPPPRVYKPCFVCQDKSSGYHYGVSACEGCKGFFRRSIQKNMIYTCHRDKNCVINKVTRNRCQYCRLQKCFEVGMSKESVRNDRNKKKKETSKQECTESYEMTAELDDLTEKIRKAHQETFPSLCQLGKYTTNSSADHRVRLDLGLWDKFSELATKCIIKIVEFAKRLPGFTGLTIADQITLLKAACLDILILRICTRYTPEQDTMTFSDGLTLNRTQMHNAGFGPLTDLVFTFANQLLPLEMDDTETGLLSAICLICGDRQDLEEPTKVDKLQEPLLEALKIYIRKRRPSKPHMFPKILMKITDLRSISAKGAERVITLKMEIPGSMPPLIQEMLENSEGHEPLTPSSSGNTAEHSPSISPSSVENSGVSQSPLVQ
Chain of RARb:RXRa (P19793 whole entry, chain 2 of 2): as the sequence (P19793 whole entry, chain 2 of 2) above

One data set deals with RXRa (Homo sapiens, UniProt P19793). As to the kind of experiment: no ligand; PBM; 180 nM; PBS pH 7.4, 2% milk, 0.02% Triton X-100, 1 mM DTT, BSA, 0.4 mg/ml salmon testes DNA. The settings on record: tags: His cleaved; chain copies: 2; label: surface-attached array probe.
Chain of RXRa (P19793 whole entry): as the sequence (P19793 whole entry, chain 2 of 2) above
Consider B1, for which the binding signal was -0.92 PBM z-score against 500 random probes.

A further data set concerns the target RARb:RXRa (Homo sapiens, UniProt P10826;P19793 full;full). The experiment in a line: no ligand; PBM; 270 nM : 90 nM RXRa; PBS pH 7.4, 2% milk, 0.02% Triton X-100, 1 mM DTT, BSA, 0.4 mg/ml salmon testes DNA. The following applies: tags: His kept;His cleaved; copies: 1;1; label: surface-attached array probe. The method in brief:
(§1)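 Random background probes are the reference for binding z-scores. These scores derive from regression-normalized fluorescence on custom Agilent 4×180K protein-binding microarrays incubated 1 h with ligand-free nuclear receptor dimers. Binding was detected with antibodies against each partner (one per run).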
As for B1, the binding signal is -0.98 PBM z-score against 500 random probes.

Another data set concerns the target VDR:RXRa (Homo sapiens, UniProt P11473;P19793 full;full). The description is as above. The following applies: tags: His kept;His cleaved; copies: 1;1; label: surface-attached array probe. The procedure, abridged:
as §1
For the molecule B1, the binding signal was -0.96 PBM z-score against 500 random probes.

A further data set addresses LXRb:RXRa (Homo sapiens, UniProt P55055;P19793 full;full). The data set is described as above. The settings on record: tags: His kept;His cleaved; copies: 1;1; label: surface-attached array probe. The method in brief: as §1
For B2, the binding signal was 3.7 PBM z-score against 500 random probes.

For B3, the binding signal was 6.29 PBM z-score against 500 random probes.

In the case of B4, the binding signal was 3.75 PBM z-score against 500 random probes.

Regarding B5, the binding signal is 7.36 PBM z-score against 500 random probes.

On to B6, for which the binding signal was 6.72 PBM z-score against 500 random probes.

Take B7: the binding signal is 6.78 PBM z-score against 500 random probes.

For the molecule B8, the binding signal is 6.39 PBM z-score against 500 random probes.

B9: the binding signal is 3.61 PBM z-score against 500 random probes.

On to B10, for which the binding signal was 6.23 PBM z-score against 500 random probes.

As for B11, the binding signal is 5.84 PBM z-score against 500 random probes.

In the case of B12, the binding signal was 3.73 PBM z-score against 500 random probes.

B13: the binding signal is 6.04 PBM z-score against 500 random probes.

Take B14: the binding signal is 3.76 PBM z-score against 500 random probes.

For B15, the binding signal was 6.37 PBM z-score against 500 random probes.

B16: the binding signal is 6.12 PBM z-score against 500 random probes.

For B17, the binding signal was 3.81 PBM z-score against 500 random probes.

With B18, the binding signal was 3.68 PBM z-score against 500 random probes.

Take B19: the binding signal is 7.24 PBM z-score against 500 random probes.

B20: the binding signal is 6.19 PBM z-score against 500 random probes.

As to B21, the binding signal was 3.9 PBM z-score against 500 random probes.

As for B22, the binding signal is 3.78 PBM z-score against 500 random probes.

In the case of B23, the binding signal is 3.89 PBM z-score against 500 random probes.

Turning to B24, the binding signal was 6.26 PBM z-score against 500 random probes.

For B25, the binding signal was 3.86 PBM z-score against 500 random probes.

Regarding B26, the binding signal is 3.64 PBM z-score against 500 random probes.

In the case of B27, the binding signal is 7.56 PBM z-score against 500 random probes.

As for B28, the binding signal is 3.62 PBM z-score against 500 random probes.

The target in the next data set is FXR:RXRa (Homo sapiens, UniProt Q96RI1;P19793 full;full). The description is as above. The following applies: tags: His kept;His cleaved; copies: 1;1; label: surface-attached array probe. The method in brief:
as §1
Regarding B1, the binding signal is -2.74 PBM z-score against 500 random probes.
